PMC7078158, “Enzymes Catalyzing Crotonyl-CoA Conversion to Acetoacetyl-CoA During the Autotrophic CO2 Fixation in Metallosphaera sedula” (Frontiers in Microbiology, 2020)

Key:
Type in all cases: biochemical, Metallosphaera sedula
[1] = substrate: CCCCC/C=C/C(=O)SCCNC(=O)CCNC(=O)[C@H](O)C(C)(C)COP(=O)(O)OP(=O)(O)OC[C@H]1O[C@@H](n2cnc3c(N)ncnc32)[C@H](O)[C@@H]1OP(=O)(O)O; assay: UHPLC, 3-hydroxyoctanoyl-CoA formation; conditions: hydratase reaction, 65 °C, apparent Km, buffer in general 100 mM Tris-HCl pH 7.8
Excerpt: UHPLC, 3-hydroxyoctanoyl-CoA formation on crotonyl-CoA hydratase/(S)-3-hydroxybutyryl-CoA dehydrogenase Msed_0399

[2] = substrate: C/C=C/C(=O)SCCNC(=O)CCNC(=O)[C@H](O)C(C)(C)COP(=O)(O)OP(=O)(O)OC[C@H]1O[C@@H](n2cnc3c(N)ncnc32)[C@H](O)[C@@H]1OP(=O)(O)O; assay: UHPLC, 3-hydroxybutyryl-CoA formation; conditions: hydratase reaction, 100 mM Tris-HCl pH 9, 65 °C, apparent Km
Excerpt: UHPLC, 3-hydroxybutyryl-CoA formation on crotonyl-CoA hydratase/(S)-3-hydroxybutyryl-CoA dehydrogenase Msed_0399

[3] = substrate: CC(C)(COP(=O)(O)OP(=O)(O)OC[C@H]1O[C@@H](n2cnc3c(N)ncnc32)[C@H](O)[C@@H]1OP(=O)(O)O)[C@@H](O)C(=O)NCCC(=O)NCCSC(=O)CCO; assay: Ccr-coupled assay, acryloyl-CoA formation, UHPLC; conditions: dehydratase reaction, 100 mM MOPS/KOH pH 7.0, 42 °C, 1 mM NADPH and NaHCO3 for coupling enzyme, apparent Km
Excerpt: Ccr-coupled assay, acryloyl-CoA formation, UHPLC on crotonyl-CoA hydratase/(S)-3-hydroxybutyryl-CoA dehydrogenase Msed_0399

[4] = substrate: C[C@H](O)CC(=O)SCCNC(=O)CCNC(=O)[C@H](O)C(C)(C)COP(=O)(O)OP(=O)(O)OC[C@H]1O[C@@H](n2cnc3c(N)ncnc32)[C@H](O)[C@@H]1OP(=O)(O)O; assay: (S)-3-hydroxybutyryl-CoA dehydrogenase assay with NAD; conditions: dehydrogenase reaction with NAD, 65 °C, apparent Km
Excerpt: (S)-3-hydroxybutyryl-CoA dehydrogenase assay with NAD on crotonyl-CoA hydratase/(S)-3-hydroxybutyryl-CoA dehydrogenase Msed_0399

[5] = substrate: C[C@H](O)CC(=O)SCCNC(=O)CCNC(=O)[C@H](O)C(C)(C)COP(=O)(O)OP(=O)(O)OC[C@H]1O[C@@H](n2cnc3c(N)ncnc32)[C@H](O)[C@@H]1OP(=O)(O)O; assay: (S)-3-hydroxybutyryl-CoA dehydrogenase assay; conditions: 0.5 mM NAD, 65 °C, apparent Km
Excerpt: (§1) (S)-3-hydroxybutyryl-CoA dehydrogenase assay on (S)-3-hydroxybutyryl-CoA dehydrogenase Msed_1423

[6] = substrate: NC(=O)c1ccc[n+]([C@@H]2O[C@H](COP(=O)(O)OP(=O)(O)OC[C@H]3O[C@@H](n4cnc5c(N)ncnc54)[C@H](O)[C@@H]3O)[C@@H](O)[C@H]2O)c1; assay: (S)-3-hydroxybutyryl-CoA dehydrogenase assay; conditions: with (S)-3-hydroxybutyryl-CoA, 65 °C, apparent Km, varied: cofactor
Excerpt: as §1

[7] = substrate: NC(=O)c1ccc[n+]([C@@H]2O[C@H](COP(=O)(O)OP(=O)(O)OC[C@H]3O[C@@H](n4cnc5c(N)ncnc54)[C@H](OP(=O)(O)O)[C@@H]3O)[C@@H](O)[C@H]2O)c1; assay: (S)-3-hydroxybutyryl-CoA dehydrogenase assay; conditions: with (S)-3-hydroxybutyryl-CoA, 65 °C, apparent Km, varied: cofactor
Excerpt: as §1

[8] = substrate: C[C@H](O)CC(=O)SCCNC(=O)CCNC(=O)[C@H](O)C(C)(C)COP(=O)(O)OP(=O)(O)OC[C@H]1O[C@@H](n2cnc3c(N)ncnc32)[C@H](O)[C@@H]1OP(=O)(O)O; assay: (S)-3-hydroxybutyryl-CoA dehydrogenase assay; conditions: 0.5 mM NAD, 65 °C, apparent Km; remark: listed apart in the source
Excerpt: (§2) (S)-3-hydroxybutyryl-CoA dehydrogenase assay on (S)-3-hydroxybutyryl-CoA dehydrogenase Msed_0389

[9] = substrate: NC(=O)c1ccc[n+]([C@@H]2O[C@H](COP(=O)(O)OP(=O)(O)OC[C@H]3O[C@@H](n4cnc5c(N)ncnc54)[C@H](O)[C@@H]3O)[C@@H](O)[C@H]2O)c1; assay: (S)-3-hydroxybutyryl-CoA dehydrogenase assay; conditions: with (S)-3-hydroxybutyryl-CoA, 65 °C, apparent Km, varied: cofactor; remark: listed apart in the source
Excerpt: as §2

[10] = substrate: NC(=O)c1ccc[n+]([C@@H]2O[C@H](COP(=O)(O)OP(=O)(O)OC[C@H]3O[C@@H](n4cnc5c(N)ncnc54)[C@H](OP(=O)(O)O)[C@@H]3O)[C@@H](O)[C@H]2O)c1; assay: (S)-3-hydroxybutyryl-CoA dehydrogenase assay; conditions: with (S)-3-hydroxybutyryl-CoA, 65 °C, apparent Km, varied: cofactor; remark: listed apart in the source
Excerpt: as §2

[11] = substrate: C=C(C)C(=O)SCCNC(=O)CCNC(=O)[C@H](O)C(C)(C)COP(=O)(O)OP(=O)(O)OC[C@H]1O[C@@H](n2cnc3c(N)ncnc32)[C@H](O)[C@@H]1OP(=O)(O)O; assay: UHPLC, 3-hydroxy-2-methylpropionyl-CoA formation; conditions: hydratase reaction, 100 mM Tris-HCl pH 7.8, 65 °C, apparent Km
Excerpt: UHPLC, 3-hydroxy-2-methylpropionyl-CoA formation on crotonyl-CoA hydratase Msed_0336

[12] = substrate: C[C@H](O)CC(=O)SCCNC(=O)CCNC(=O)[C@H](O)C(C)(C)COP(=O)(O)OP(=O)(O)OC[C@H]1O[C@@H](n2cnc3c(N)ncnc32)[C@H](O)[C@@H]1OP(=O)(O)O; assay: Ccr-coupled dehydratase assay, UHPLC; conditions: dehydratase reaction, 100 mM Tris-HCl pH 7.8, 42 °C, 1 mM NADPH and NaHCO3 for coupling enzyme, apparent Km
Excerpt: Ccr-coupled dehydratase assay, UHPLC on crotonyl-CoA hydratase Msed_0336

[13] = substrate: C=CC(=O)SCCNC(=O)CCNC(=O)[C@H](O)C(C)(C)COP(=O)(O)OP(=O)(O)OC[C@H]1O[C@@H](n2cnc3c(N)ncnc32)[C@H](O)[C@@H]1OP(=O)(O)O; assay: UHPLC, 3-hydroxypropionyl-CoA formation; conditions: hydratase reaction, 100 mM Tris-HCl pH 7.8, 65 °C, apparent Km
Excerpt: UHPLC, 3-hydroxypropionyl-CoA formation on crotonyl-CoA hydratase Msed_0336

[14] = substrate: C/C=C/C(=O)SCCNC(=O)CCNC(=O)[C@H](O)C(C)(C)COP(=O)(O)OP(=O)(O)OC[C@H]1O[C@@H](n2cnc3c(N)ncnc32)[C@H](O)[C@@H]1OP(=O)(O)O; assay: UHPLC, 3-hydroxybutyryl-CoA formation; conditions: hydratase reaction, 100 mM Tris-HCl pH 7.8, 65 °C, apparent Km
Excerpt: UHPLC, 3-hydroxybutyryl-CoA formation on crotonyl-CoA hydratase Msed_0336

[15] = substrate: CCCCC/C=C/C(=O)SCCNC(=O)CCNC(=O)[C@H](O)C(C)(C)COP(=O)(O)OP(=O)(O)OC[C@H]1O[C@@H](n2cnc3c(N)ncnc32)[C@H](O)[C@@H]1OP(=O)(O)O; assay: UHPLC, 3-hydroxyoctanoyl-CoA formation; conditions: hydratase reaction, 100 mM Tris-HCl pH 7.8, 65 °C, apparent Km
Excerpt: UHPLC, 3-hydroxyoctanoyl-CoA formation on crotonyl-CoA hydratase Msed_0336

B1: crotonyl-CoA hydratase/(S)-3-hydroxybutyryl-CoA dehydrogenase Msed_0399 (Metallosphaera sedula DSM 5348) (protein)
chain: MKVTVIGSGVMGHGIAELAAIAGNEVWMNDISTEILQQAMERIKWSLSKLRESGSLKEGVEQVLARIHPETDQAQALKGSDFVIEAVKEDLELKRTIFRNAEAHASPSAVLATNTSSLPISEIASVLKSPQRVVGMHFFNPPVLMPLVEIVRGKDTSDEVVKTTAEMAKSMNKETIVVKDVPGFFVNRVLLRIMEAGCYLVEKGIASIQEVDSSAIEELGFPMGVFLLADYTGLDIGYSVWKAVTARGFKAFPCSSTEKLVSQGKLGVKSGSGYYQYPSPGKFVRPTLPSTSKKLGRYLISPAVNEVSYLLREGIVGKDDAEKGCVLGLGLPKGILSYADEIGIDVVVNTLEEMRQTSGMDHYSPDPLLLSMVKEGKLGRKSGQGFHTYAHEEAKYSTIVVRVEPPLAWIVLNRPTRYNAINGDMIREINQALDSLEEREDVRVIAITGQGRVFSAGADVTEFGSLTPVKAMIASRKFHEVFMKIQFLTKPVIAVINGLALGGGMELALSADFRVASKTAEMGQPEINLGLIPGGGGTQRLSRLSGRKGLELVLTGRRVKAEEAYRLGIVEFLAEPEELESEVRKLANAIAEKSPLAVASAKLAYKLGEETHIWTGTSLEASLFGLLFSTKDFEEGVRAFLEKRKPNFRGE
notes: full-length, untagged, recombinant in E. coli Rosetta 2 (DE3); N-terminal dehydrogenase domain (~40 kDa), C-terminal enoyl-CoA hydratase domain (~20 kDa)
Question: For B1, which Km [1] is on record?
Answer: Its Km is 80 ± 10 µM.

Question: And the Km [2]?
Answer: Its Km is 970 ± 70 µM.

Question: And the Km [3]?
Answer: The Km was 60 ± 20 µM.

Question: And the Km [4]?
Answer: The Km was 120 ± 10 µM.

B2: (S)-3-hydroxybutyryl-CoA dehydrogenase Msed_1423 (Metallosphaera sedula DSM 5348) (protein)
chain: MRIAVVGSGTMGHGIAEVAAMAGMEVKLIDISWDILNRAKERMYDSLKRLHERGTIRETPDTVMSRIEISVSYDVAKDVDFAIEAVPEILELKRKVFQELDRVVPKESILATNTSSIPISDIGEITSRKEKVIGMHFFNPPPLMKLVEVIPSKYTSEDVTRYTVELAKKMGKTPVRLRVEVPGFVSNRIFLRLLQEACREVESGEATIEEVDSSARNKLKLPMGIFELADYVGLDVAVDLWKVIVERGASDVKCSSYKERVDRKELGVKTGKGFYTYPAPGKYSKVSLPPESKVPPERIISLAVNEGAWLIENNIVNAEEIDTVMRLGFNFPKGLLEMADELGLDKILNALREIHSRGYEAYSPNPLLVKMVSQGQTGKSSGRGFYTYGKT
notes: full-length, N-terminal His10-tag (pET16b), recombinant in E. coli Rosetta 2 (DE3)
Question: B2 was tested. Which Km [5] did it give?
Answer: The Km was 5 ± 2 µM.

Question: What about the Km [6] of the same protein?
Answer: The Km was 30 ± 3 µM.

Question: What about the Km [7] of the same protein?
Answer: Its Km is 5100 ± 500 µM.

B3: (S)-3-hydroxybutyryl-CoA dehydrogenase Msed_0389 (Metallosphaera sedula DSM 5348) (protein)
chain: MKVFVIGSGVMGSGIGQVFAMAGHEVTLYDVKEEALKKAMEGIRWSLQKLQEKGSVKDVESVLSRIFTSRDLSEARDHLVIEAVFEDIKVKSDVLGRVSPLTDEIIASNTSSLPITELSRAVRNPERFLGMHFFNPPVLMKLVEVIRGDNTSEERFREALDIVKSLGKYPLPVRKDVFGFVVNRILFRLFTSACALLTQYTPHEIDYVAIKELGMPMGLIMLLDYTGLDVNYDISKEAERRGFPFKCDVLEGMVKSGKLGRKSGQGFYDWSKGKPEVKATSGPDPRELLRGAVEEAKWLISQGVVTREELETGLKLGLGMSRGILELGEILGVH
notes: as for B2
Question: What does the source list for B3?
Answer: Km [8]: 2.6 ± 1 µM; Km [9]: 12 ± 2 µM; Km [10]: 1500 ± 300 µM

B4: crotonyl-CoA hydratase Msed_0336 (Metallosphaera sedula DSM 5348) (protein)
chain: MKVLYEERDGISWITFNRPEKLNALDAESWKLLGDHVRRGDSSDSRAIVITGNGRAFSSGDDIGSMTSLNDQREAEDFFNALLYAVDGLIYTNKPVIGAVNGLAYGGGCEILLFMDVVISTRSARFSIPEGRLGLIPPMALSVGYNSIGRSVAWLAITGEEIDAMRAKEIGLVDIVGDDLNLELEKVMARISSMDQGSIKVIKAWLRKSREPIREAIRELSFMSLSTQAKERMKRFLSR
notes: as for B2
Question: B4 was tested. Which Km [11] did it give?
Answer: Its Km is 290 ± 50 µM.

Question: And the Km [12]?
Answer: The Km was 70 ± 20 µM.

Question: And the Km [13]?
Answer: Its Km is 70 ± 5 µM.

Question: What about the Km [14] of the same protein?
Answer: The Km was 80 ± 10 µM.

Question: And the Km [15]?
Answer: The Km was 90 ± 10 µM.
